Measured values: the DeepSol protein solubility set

assay: soluble on expression in E. coli; label from the status in PepcDB or PDB records

Sequence	soluble on expression in E. coli
MTSSIPFRSFNEKYECNDDDNFTYSSTEQKRIETMLFENYNSLVLEPFKTTSDEDLAELTIFRQKHASYLLRYLKNCPSSYATLDASRSWMCYWGVNALKILDAEIPNDVIENIIVFLKSCEHPEGGYGGGPGQLAHLAPTYAAVMCLVSLQKEEALRSINRVTLFNFLKKCKHESGGFYMHEGGEIDMRSAYCALATCEIVGLPMDEISNGVAEWIISCQSFEGGFGGEPYTEAHGGYTFCAVASLVLLNRFRLADMEGLLRWATRRQMRFEGGFQGRTNKLVDGCYSFWQGAIFPLLDGEMEREGRSLEKGLFEARMLEEYILVGCQSVHGGFKDKPDKPVDLYHTCYVLSGLSVAQKYSLARDGKILGGDVNMLAEINPVFNVTIASEQFAKEFFTSH	not soluble
MGSDKIHHHHHHMEIGQRFLVQLEETGQYFVNYQDGILIELAFDATVGKQSPAFSDLEHTAAYLEEHLRSHQTQALLLASKIHAYDASPVERITQMISIHSFFSTHRLVHPLNAYSTALLISRLEATDPQLQRTVELYRLAKKSHRFIVSPLLVSFLFLNALRRGEIATIHARIEATYDILKKRFGRSQQTYVTALLLALLPEDDQATYIAQVVQSRNLYRKHGIPLSFHGLLALLGDPRMHQTALEGLADQFRNTPHFKYRKDLVFLTAVRLYLADHPTLHQLFAPFSPSTLDDTSNLLPVYLFPVDLTDTSHATDGGMTDGGFDGGDGGGGGGD	not soluble
MGSDKIHHHHHHMSNHSSSIPELSDNGIRYYQTYNESLSLWPVRCKSFYISTRFGQTHVIASGPEDAPPLVLLHGALFSSTMWYPNIADWSSKYRTYAVDIIGDKNKSIPENVSGTRTDYANWLLDVFDNLGIEKSHMIGLSLGGLHTMNFLLRMPERVKSAAILSPAETFLPFHHDFYKYALGLTASNGVETFLNWMMNDQNVLHPIFVKQFKAGVMWQDGSRNPNPNADGFPYVFTDEELRSARVPILLLLGEHEVIYDPHSALHRASSFVPDIEAEVIKNAGHVLSMEQPTYVNERVMRFFNA	soluble
MGSDKIHHHHHHMNERLRQGLVAAEGPLSGEVIKDVECVAGGCIHQAWCLQLKGGRQLFAKTGGADALPMLKVEVEGLKALKAWVDPGVLEVPEPLAFDQVCGEAVLLLPWLDFRAGNQASLGRGLALLHRASAAENPGRFGWPVDGFIGAGSQPGGWREQWGDAFVTLRLRPQLREAARWGLDLVDVEPILAALIPWLDRHQPSPSLVHGDLWSGNANVLSDGRGVLLDPATWWADREVDLAMTQLFGGFSQDFYIGYENVWPLPADASQRVEVYNLYHLINHANLFGGSYRNQSQAILNRLASWLLT	not soluble
MGSDKIHHHHHHMFRSMRTSHERVHFTAKARRASTMAAPQNKVIVTCAVTGGIHTPTMSPHLPITARDIEDESVAAAEAGAAIVHLHARKPENGQPSQDPALFLEFLPRIAARSDVVINLTTGGAPNMLVEERLQPALQLKPEVASLNMGSMNFGLYPMIARHKTFKYDWERPYLEGSEDRVFRNTFKEIRYILESCADNGTRFEIECYDTSHLYTAAHFIDRGILKPPFFIQSVFGLLGGIGTHPDDVMHMRRTAERLFGKDYYWSVLGAGRSQMPIASMAAAMGGNVRVGLEDSLWEDRGRLSRSNADQVRRVVGILKSLNLEVATPDEARDMLQLKGRDAVAF	not soluble
GEEGNSSELPLSAEDAKKLTELAENVLQGWDVQAEKIDVIQGNQMALVWKVHTDSGAVCLKRIHRPEKKALFSIFAQDYLAKKGMNVPGILPNKKGSLYSKHGSFLFVVYDWIEGRPFELTVKQDLEFIMKGLADFHTASVGYQPPNGVPIFTKLGRWPNHYTKRCKQMETWKLMAEAEKEDPFSQLYLQEIDGFIEDGLRIKDRLLQSTYVPWTEQLKKSPNLCHQDYGTGNTLLGENEQIWVIDLDTVSFDLPIRDLRKMIIPLLDTTGVWDDETFNVMLNAYESRAPLTEEQKQVMFIDMLFPYELYDVIREKYVRKSALPKEELESAFEYERIKANALRQLI	soluble
PKWQAVRAEYQRQRDPLHQFASQQNPEAQLQALQDKIRANPQNSEQWALLGEYYLWQNDYSNSLLAYRQALQLRGENAELYAALATVLYYQASQHMTAQTRAMIDKALALDSNEITALMLLASDAFMQANYAQAIELWQKVMDLNSPRINRTQLVESINMAKLLQRRSDLEHHHHHH	soluble
MGHHHHHHSHMTLRCLEPSGNGGEGTRSQWGTAGSAEEPSPQAARLAKALRELGQTGWYWGSMTVNEAKEKLKEAPEGTFLIRDSSHSDYLLTISVKTSAGPTNLRIEYQDGKFRLDSIICVKSKLKQFDSVVHLIDYYVQMCKDKRTGPEAPRNGTVHLYLTKPLYTSAPSLQHLCRLTINKCTGAIWGLPLPTRLKDYLEEYKFQV	not soluble
